# Assay results as given in paper PMC9658990.
# Target: T1, HMW-uPA (high molecular weight urokinase), biotinylated for FLAA (human, UniProt P00749;P00749 21-177;179-431)
# Test: FLAA (OliGreen); BPs-T: 50 mM Bis-Tris/HCl pH 6.5, 110 mM NaCl, 5 mM MgCl2, 1 mM CaCl2, 1 mM KCl (printed KCl2), 0.05% Tween 20, 23 °C
row,Binder,binding result
1,CCAGCGGGGGTGAGAGATCTGTCAGTACGAGCTGGGTTTGCG (ssDNA) [Ex-S2],binds
2,CAAGCGGGGGTTAGAGATCTGTCAGTACGAGCTGGGTTTGCG (ssDNA) [Ex-S12],binds
3,CAAGCGGGGGTGAGAGATCTGTCAGTACGAGCTGGGCTTGCG (ssDNA) [Ex-S37],binds

# Target: T1, HMW-uPA (high molecular weight …)
# Test: as above
# Remark: another data set of the same source
row,Binder,binding signal
1,TAAGCGGGGGTGAGAGATCTGTCAGTACGAGCTGGGTTTGCG (ssDNA) [Ex-S1],36 % signal reduction vs uPAapt-02-FR
2,CAAGCGGGGGCGAGAGATCTGTCAGTACGAGCTGGGTTTGCG (ssDNA) [Ex-S11],91 % signal reduction vs uPAapt-02-FR
3,CAAGCGGGGGTGCGAGATCTGTCAGTACGAGCTGGGTTTGCG (ssDNA) [Ex-S13],97 % signal reduction vs uPAapt-02-FR
4,CAAGCGGGGGTGATAGATCTGTCAGTACGAGCTGGGTTTGCG (ssDNA) [Ex-S14],91 % signal reduction vs uPAapt-02-FR
5,CAAGCGGGGGTGAGCGATCTGTCAGTACGAGCTGGGTTTGCG (ssDNA) [Ex-S15],89 % signal reduction vs uPAapt-02-FR
6,CAAGCGGGGGTGAGATATCTGTCAGTACGAGCTGGGTTTGCG (ssDNA) [Ex-S16],72 % signal reduction vs uPAapt-02-FR
7,CAAGCGGGGGTGAGAGCTCTGTCAGTACGAGCTGGGTTTGCG (ssDNA) [Ex-S17],16 % signal reduction vs uPAapt-02-FR
8,CAAGCGGGGGTGAGAGACCTGTCAGTACGAGCTGGGTTTGCG (ssDNA) [Ex-S18],94 % signal reduction vs uPAapt-02-FR
9,CAAGCGGGGGTGAGAGATTTGTCAGTACGAGCTGGGTTTGCG (ssDNA) [Ex-S19],0 % signal reduction vs uPAapt-02-FR
10,CAAGCGGGGGTGAGAGATCCGTCAGTACGAGCTGGGTTTGCG (ssDNA) [Ex-S20],95 % signal reduction vs uPAapt-02-FR
11,CACGCGGGGGTGAGAGATCTGTCAGTACGAGCTGGGTTTGCG (ssDNA) [Ex-S3],18 % signal reduction vs uPAapt-02-FR
12,CAAGCGGGGGTGAGAGATCTTTCAGTACGAGCTGGGTTTGCG (ssDNA) [Ex-S21],92 % signal reduction vs uPAapt-02-FR
13,CAAGCGGGGGTGAGAGATCTGCCAGTACGAGCTGGGTTTGCG (ssDNA) [Ex-S22],99 % signal reduction vs uPAapt-02-FR
14,CAAGCGGGGGTGAGAGATCTGTTAGTACGAGCTGGGTTTGCG (ssDNA) [Ex-S23],13 % signal reduction vs uPAapt-02-FR
15,CAAGCGGGGGTGAGAGATCTGTCCGTACGAGCTGGGTTTGCG (ssDNA) [Ex-S24],98 % signal reduction vs uPAapt-02-FR
16,CAAGCGGGGGTGAGAGATCTGTCATTACGAGCTGGGTTTGCG (ssDNA) [Ex-S25],99 % signal reduction vs uPAapt-02-FR
17,CAAGCGGGGGTGAGAGATCTGTCAGCACGAGCTGGGTTTGCG (ssDNA) [Ex-S26],89 % signal reduction vs uPAapt-02-FR
18,CAAGCGGGGGTGAGAGATCTGTCAGTCCGAGCTGGGTTTGCG (ssDNA) [Ex-S27],100 % signal reduction vs uPAapt-02-FR
19,CAAGCGGGGGTGAGAGATCTGTCAGTATGAGCTGGGTTTGCG (ssDNA) [Ex-S28],95 % signal reduction vs uPAapt-02-FR
20,CAAGCGGGGGTGAGAGATCTGTCAGTACTAGCTGGGTTTGCG (ssDNA) [Ex-S29],47 % signal reduction vs uPAapt-02-FR

row,Binder,binding signal
1,CAAGCGGGGGTGAGAGATCTGTCAGTACGCGCTGGGTTTGCG (ssDNA) [Ex-S30],89 % signal reduction vs uPAapt-02-FR
2,CAATCGGGGGTGAGAGATCTGTCAGTACGAGCTGGGTTTGCG (ssDNA) [Ex-S4],85 % signal reduction vs uPAapt-02-FR
3,CAAGCGGGGGTGAGAGATCTGTCAGTACGATCTGGGTTTGCG (ssDNA) [Ex-S31],100 % signal reduction vs uPAapt-02-FR
4,CAAGCGGGGGTGAGAGATCTGTCAGTACGAGTTGGGTTTGCG (ssDNA) [Ex-S32],63 % signal reduction vs uPAapt-02-FR
5,CAAGCGGGGGTGAGAGATCTGTCAGTACGAGCCGGGTTTGCG (ssDNA) [Ex-S33],82 % signal reduction vs uPAapt-02-FR
6,CAAGCGGGGGTGAGAGATCTGTCAGTACGAGCTTGGTTTGCG (ssDNA) [Ex-S34],0 % signal reduction vs uPAapt-02-FR
7,CAAGCGGGGGTGAGAGATCTGTCAGTACGAGCTGTGTTTGCG (ssDNA) [Ex-S35],27 % signal reduction vs uPAapt-02-FR
8,CAAGCGGGGGTGAGAGATCTGTCAGTACGAGCTGGTTTTGCG (ssDNA) [Ex-S36],11 % signal reduction vs uPAapt-02-FR
9,CAAGCGGGGGTGAGAGATCTGTCAGTACGAGCTGGGTCTGCG (ssDNA) [Ex-S38],53 % signal reduction vs uPAapt-02-FR
10,CAAGCGGGGGTGAGAGATCTGTCAGTACGAGCTGGGTTCGCG (ssDNA) [Ex-S39],65 % signal reduction vs uPAapt-02-FR
11,CAAGCGGGGGTGAGAGATCTGTCAGTACGAGCTGGGTTTTCG (ssDNA) [Ex-S40],3 % signal reduction vs uPAapt-02-FR
12,CAAGTGGGGGTGAGAGATCTGTCAGTACGAGCTGGGTTTGCG (ssDNA) [Ex-S5],56 % signal reduction vs uPAapt-02-FR
13,CAAGCGGGGGTGAGAGATCTGTCAGTACGAGCTGGGTTTGTG (ssDNA) [Ex-S41],3 % signal reduction vs uPAapt-02-FR
14,CAAGCGGGGGTGAGAGATCTGTCAGTACGAGCTGGGTTTGCT (ssDNA) [Ex-S42],17 % signal reduction vs uPAapt-02-FR
15,CAAGCTGGGGTGAGAGATCTGTCAGTACGAGCTGGGTTTGCG (ssDNA) [Ex-S6],50 % signal reduction vs uPAapt-02-FR
16,CAAGCGTGGGTGAGAGATCTGTCAGTACGAGCTGGGTTTGCG (ssDNA) [Ex-S7],34 % signal reduction vs uPAapt-02-FR
17,CAAGCGGTGGTGAGAGATCTGTCAGTACGAGCTGGGTTTGCG (ssDNA) [Ex-S8],94 % signal reduction vs uPAapt-02-FR
18,CAAGCGGGTGTGAGAGATCTGTCAGTACGAGCTGGGTTTGCG (ssDNA) [Ex-S9],65 % signal reduction vs uPAapt-02-FR
19,CAAGCGGGGTTGAGAGATCTGTCAGTACGAGCTGGGTTTGCG (ssDNA) [Ex-S10],78 % signal reduction vs uPAapt-02-FR
